Numbering of substitutions follows the chain as printed. Names may count otherwise.
B1: RECQ1-WT (full-length His-tagged human RECQ1) (enzyme, UniProt P46063 1-649, looked up)
chain: MASVSALTEELDSITSELHAVEIQIQELTERQQELIQKKKVLTKKIKQCLEDSDAGASNEYDSSPAAWNKEDFPWSGKVKDILQNVFKLEKFRPLQLETINVTMAGKEVFLVMPTGGGKSLCYQLPALCSDGFTLVICPLISLMEDQLMVLKQLGISATMLNASSSKEHVKWVHAEMVNKNSELKLIYVTPEKIAKSKMFMSRLEKAYEARRFTRIAVDEVHCCSQWGHDFRPDYKALGILKRQFPNASLIGLTATATNHVLTDAQKILCIEKCFTFTASFNRPNLYYEVRQKPSNTEDFIEDIVKLINGRYKGQSGIIYCFSQKDSEQVTVSLQNLGIHAGAYHANLEPEDKTTVHRKWSANEIQVVVATVAFGMGIDKPDVRFVIHHSMSKSMENYYQESGRAGRDDMKADCILYYGFGDIFRISSMVVMENVGQQKLYEMVSYCQNISKCRRVLMAQHFDEVWNSEACNKMCDNCCKDSAFERKNITEYCRDLIKILKQAEELNEKLTPLKLIDSWMGKGAAKLRVAGVVAPTLPREDLEKIIAHFLIQQYLKEDYSFTAYATISYLKIGPKANLLNNEAHAITMQVTKSTQNSFRAESSQTCHSEQGDKKMEEKNSGNFQKKAANMLQQSGSKNTGAKKRKIDDA
B2: RECQ1-F231A (full-length His-tagged human RECQ1 aromatic loop mutant) (enzyme, UniProt P46063 1-649, looked up)
chain: B1 chain with F231A
B3: RECQ1-W227A (full-length His-tagged human RECQ1 aromatic loop mutant) (enzyme, UniProt P46063 1-649, looked up)
chain: B1 chain with W227A

Molecular target: the molecule itself
Test: SEC

Protein	binding result
B1	binds
B2	binds
B3	binds
